The numbers were not newly measured in paper PMC5401657, which cites them from elsewhere.

The target in the data set is integrin αvβ3 (Homo sapiens) (UniProt P06756). The data set is described as follows: SPR.
Chain of UniProt P06756 (P06756 31-992, chain 1 of 2): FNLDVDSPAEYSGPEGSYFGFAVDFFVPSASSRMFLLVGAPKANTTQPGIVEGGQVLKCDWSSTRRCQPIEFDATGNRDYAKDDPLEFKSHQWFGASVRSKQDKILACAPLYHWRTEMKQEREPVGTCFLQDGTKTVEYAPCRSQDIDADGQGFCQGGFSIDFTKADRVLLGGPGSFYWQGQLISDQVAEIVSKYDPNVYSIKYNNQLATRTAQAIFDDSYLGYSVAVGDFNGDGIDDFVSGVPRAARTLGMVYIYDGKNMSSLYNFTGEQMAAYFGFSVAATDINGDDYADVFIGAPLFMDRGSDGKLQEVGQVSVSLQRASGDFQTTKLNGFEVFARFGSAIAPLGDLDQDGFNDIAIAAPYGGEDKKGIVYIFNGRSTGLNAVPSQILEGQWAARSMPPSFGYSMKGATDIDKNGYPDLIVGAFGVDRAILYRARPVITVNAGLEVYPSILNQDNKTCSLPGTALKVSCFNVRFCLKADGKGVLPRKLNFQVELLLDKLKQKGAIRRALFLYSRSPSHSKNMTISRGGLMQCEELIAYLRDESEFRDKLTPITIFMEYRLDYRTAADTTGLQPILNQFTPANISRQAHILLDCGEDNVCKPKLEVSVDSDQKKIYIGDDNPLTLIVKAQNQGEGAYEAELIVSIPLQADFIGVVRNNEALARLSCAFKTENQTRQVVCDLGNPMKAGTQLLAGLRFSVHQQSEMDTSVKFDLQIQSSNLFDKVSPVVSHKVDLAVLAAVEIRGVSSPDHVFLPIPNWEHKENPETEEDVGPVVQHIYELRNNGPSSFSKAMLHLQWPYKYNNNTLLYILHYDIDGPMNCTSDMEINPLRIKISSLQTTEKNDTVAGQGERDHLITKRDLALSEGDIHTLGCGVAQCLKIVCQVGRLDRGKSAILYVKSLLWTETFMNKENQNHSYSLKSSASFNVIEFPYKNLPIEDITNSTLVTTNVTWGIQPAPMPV
Chain of UniProt P06756 (P05106 27-718, chain 2 of 2, further chain): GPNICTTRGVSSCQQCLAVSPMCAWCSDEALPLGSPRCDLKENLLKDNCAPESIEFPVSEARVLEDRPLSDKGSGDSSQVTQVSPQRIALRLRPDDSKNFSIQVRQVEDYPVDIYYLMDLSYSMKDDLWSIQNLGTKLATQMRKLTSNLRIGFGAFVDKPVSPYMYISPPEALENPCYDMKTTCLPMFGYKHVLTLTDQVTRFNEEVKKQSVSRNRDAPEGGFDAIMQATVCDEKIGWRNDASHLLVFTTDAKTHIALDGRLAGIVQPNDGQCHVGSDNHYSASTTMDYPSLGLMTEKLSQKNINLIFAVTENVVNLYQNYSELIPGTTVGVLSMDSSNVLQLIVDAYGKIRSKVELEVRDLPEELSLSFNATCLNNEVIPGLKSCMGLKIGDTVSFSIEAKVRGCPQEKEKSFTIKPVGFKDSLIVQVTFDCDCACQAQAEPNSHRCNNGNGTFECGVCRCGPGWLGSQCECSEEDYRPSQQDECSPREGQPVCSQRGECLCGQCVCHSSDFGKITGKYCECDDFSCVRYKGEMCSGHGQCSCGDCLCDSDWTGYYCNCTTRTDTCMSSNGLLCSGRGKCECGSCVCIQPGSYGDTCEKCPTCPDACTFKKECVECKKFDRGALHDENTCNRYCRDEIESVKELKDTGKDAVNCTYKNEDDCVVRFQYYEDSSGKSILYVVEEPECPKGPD

As to IGF1 (from UniProt P05019), the Kd was 500 nM.

As a reminder, the Kd is the constant that tells how readily two partners part at equilibrium.
